Measurements from PMC9355564, “A network of cytosolic (co)chaperones promotes the biogenesis of mitochondrial signal-anchored outer membrane proteins” (eLife, 2022).
Ends that are not written are not given here.

B1: TAMRA-labeled Mcr1 peptide, residues 1-39 (peptide, UniProt P36060 1-39, looked up)
peptide: MFSRLSRSHSKALPIALGTVAIAAATAFYFANRNQHSFV
modifications: also: TAMRA label, position not given here
notes: Mcr1, residues 1-39, contain the transmembrane segment; synthesis as in Jores et al., 2016; also called Mcr1(TMS); Mcr1-TMS peptide; source: synthetic peptide
B2: GST-Tom70(46-617) (domain or fragment, S. cerevisiae, UniProt P07213 46-617, looked up)
chain: KDEKKDTKDSQKETEGAKKSTAPSNPPIYPVSSNGEPDFSNKANFTAEEKDKYALALKDKGNQFFRNKKYDDAIKYYNWALELKEDPVFYSNLSACYVSVGDLKKVVEMSTKALELKPDYSKVLLRRASANEGLGKFADAMFDLSVLSLNGDFNDASIEPMLERNLNKQAMSKLKEKFGDIDTATATPTELSTQPAKERKDKQENLPSVTSMASFFGIFKPELTFANYDESNEADKELMNGLSNLYKRSPESYDKADESFTKAARLFEEQLDKNNEDEKLKEKLAISLEHTGIFKFLKNDPLGAHEDIKKAIELFPRVNSYIYMALIMADRNDSTEYYNYFDKALKLDSNNSSVYYHRGQMNFILQNYDQAGKDFDKAKELDPENIFPYIQLACLAYRENKFDDCETLFSEAKRKFPEAPEVPNFFAEILTDKNDFDKALKQYDLAIELENKLDGIYVGIAPLVGKATLLTRNPTVENFIEATNLLEKASKLDPRSEQAKIGLAQMKLQQEDIDEAITLFEESADLARTMEEKLQAITFAEAAKVQQRIRSDPVLAKKIQETLAKLREQGLM
notes: Tom70, cytosolic domain, residues 46-617; also called cytosolic domain of Tom70; source: expressed and purified as described earlier (Papić et al., 2013); not shown: GST, N-terminal, kept
B3: TAMRA-labeled Tom70 peptide, residues 1-32 (peptide, UniProt P07213 1-32, looked up)
peptide: MKSFITRNKTAILATVAATGTAIGAYYYYNQL
modifications: also: TAMRA label, position not given here
notes: Tom70, residues 1-32, contain the transmembrane segment; synthesis as in Jores et al., 2016; also called Tom70(TMS); TMS-labelled peptide of Tom70; source: synthetic peptide
B4: Mcr1-3HA (full length) (natural protein, S. cerevisiae, UniProt P36060 1-302, looked up)
chain: MFSRLSRSHSKALPIALGTVAIAAATAFYFANRNQHSFVFNESNKVFKGDDKWIDLPISKIEEESHDTRRFTFKLPTEDSEMGLVLASALFAKFVTPKGSNVVRPYTPVSDLSQKGHFQLVVKHYEGGKMTSHLFGLKPNDTVSFKGPIMKWKWQPNQFKSITLLGAGTGINPLYQLAHHIVENPNDKTKVNLLYGNKTPQDILLRKELDALKEKYPDKFNVTYFVDDKQDDQDFDGEISFISKDFIQEHVPGPKESTHLFVCGPPPFMNAYSGEKKSPKDQGELIGILNNLGYSKDQVFKF
notes: Mcr1, S. cerevisiae, signal-anchored mitochondrial outer membrane protein (Mcr1mom is its outer membrane isoform); also called Mcr1-FL; yk-Mcr1-3HA; source: in vitro translated in yeast extract; not shown: 3HA, C-terminal, kept

Tests used:
recombinant Sis1 = molecular target: T1, recombinant Sis1 (S. cerevisiae, UniProt P25294 1-352); test: fluorescence polarisation; fluorescence anisotropy titration, 2 µM TAMRA-labeled peptide with increasing concentrations of Ssa1 or Sis1, 30 °C; Kd from hyperbolic regression of the difference in anisotropy; settings: both partners purified
T1 construct: Sis1, yeast Hsp40 co-chaperone; also called Hsp40 co-chaperone Sis1; source: recombinantly expressed and purified
T1 sequence (looked up): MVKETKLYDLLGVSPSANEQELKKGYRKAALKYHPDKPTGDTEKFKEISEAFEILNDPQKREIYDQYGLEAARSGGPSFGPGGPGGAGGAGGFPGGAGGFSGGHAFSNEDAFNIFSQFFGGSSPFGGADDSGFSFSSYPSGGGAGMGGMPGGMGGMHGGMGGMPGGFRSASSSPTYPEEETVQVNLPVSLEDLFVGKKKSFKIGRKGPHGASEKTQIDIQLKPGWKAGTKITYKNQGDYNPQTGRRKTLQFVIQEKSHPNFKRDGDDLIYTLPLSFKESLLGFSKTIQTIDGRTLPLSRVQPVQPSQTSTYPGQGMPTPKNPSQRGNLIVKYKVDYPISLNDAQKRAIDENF

recombinant Ssa1 = molecular target: T2, recombinant Ssa1 (S. cerevisiae, UniProt P10591 1-642); test: as above; settings: both partners purified
T2 construct: Ssa1, yeast cytosolic Hsp70 chaperone; also called Hsp70 Ssa1; source: recombinantly expressed and purified
T2 sequence (P10591 whole entry): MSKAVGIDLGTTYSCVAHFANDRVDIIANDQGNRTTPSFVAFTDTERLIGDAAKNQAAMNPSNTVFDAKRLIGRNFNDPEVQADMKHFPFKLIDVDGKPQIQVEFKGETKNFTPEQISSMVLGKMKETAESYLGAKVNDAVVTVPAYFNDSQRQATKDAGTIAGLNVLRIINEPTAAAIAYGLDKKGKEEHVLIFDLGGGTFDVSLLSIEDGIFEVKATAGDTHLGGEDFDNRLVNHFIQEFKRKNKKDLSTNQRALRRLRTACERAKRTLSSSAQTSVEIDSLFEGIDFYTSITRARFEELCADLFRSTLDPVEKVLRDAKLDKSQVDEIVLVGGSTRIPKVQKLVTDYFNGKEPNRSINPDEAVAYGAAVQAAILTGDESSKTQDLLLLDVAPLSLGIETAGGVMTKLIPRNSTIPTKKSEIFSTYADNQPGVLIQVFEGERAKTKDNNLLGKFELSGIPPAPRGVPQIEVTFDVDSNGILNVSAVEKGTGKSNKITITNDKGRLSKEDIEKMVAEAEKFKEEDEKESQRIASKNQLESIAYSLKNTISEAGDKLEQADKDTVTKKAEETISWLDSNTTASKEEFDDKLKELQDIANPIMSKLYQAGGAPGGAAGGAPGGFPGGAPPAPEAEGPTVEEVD

GST-Tom70(46-617) = molecular target: B2; test: fluorescence polarisation; fluorescence anisotropy, 2 µM TAMRA-labeled peptide, 30 °C; single additions of 10 µM Ssa1, 30 µM Sis1, 10 µM GST-Tom70, GST, BSA or 1 mM ATP alone or in the indicated order; settings: both partners purified
Ssa1-Mcr1(TMS) complex = molecular target: T3, Ssa1-Mcr1(TMS) complex (S. cerevisiae, UniProt P10591 1-642; P36060 1-39, Tetramethylrhodamine (TAMRA), position not stated); test: as above; settings: both partners purified
T3 construct: Ssa1, as m37; Mcr1 residues 1-39, as m36; also called substrate-chaperone complex; Ssa1/substrate complex; source: formed beforehand by adding 10 µM recombinant Ssa1 to 2 µM TAMRA-labeled Mcr1 peptide
T3 sequence (P10591 whole entry, the tested form may be a part, one chain of several): as the sequence (P10591 whole entry) above

GST-Tom20(35-183) = molecular target: T4, GST-Tom20(35-183) (S. cerevisiae, UniProt P35180 35-183); test: pull-down; purified GST, GST-Tom20 or GST-Tom70 on glutathione sepharose beads blocked with 5% BSA, mixed with cleared in vitro translation reactions (yeast extract) of HA-tagged proteins; ATP added every 30 min; 20 mM Hepes, 100 mM NaCl, 1 mM MgCl2, pH 7.25; anti-HA blot; settings: one partner purified
T4 construct: also called cytosolic domain of Tom20; source: expressed and purified as described earlier (Papić et al., 2013); not shown: GST, N-terminal, kept
T4 sequence (looked up): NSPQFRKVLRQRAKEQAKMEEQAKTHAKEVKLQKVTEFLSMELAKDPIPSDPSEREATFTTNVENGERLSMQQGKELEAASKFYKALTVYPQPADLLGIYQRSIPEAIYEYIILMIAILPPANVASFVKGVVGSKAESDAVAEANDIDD

Binder	Kd (recombinant Sis1) [µM]	Kd (recombinant Ssa1) [nM]	binding result (GST-Tom70(46-617))	binding result (Ssa1-Mcr1(TMS) complex)	fold binding to GST-Tom20 relative to GST-Tom70 (after normalising to GST) (GST-Tom20(35-183)) [fold]
B1	25.8	3270	binds		
B2				binds	
B3	18.3	2420			
B4					4
